Measurements published in publication PMC9303311.

Legend:
[1] = biological target: SAMHD1 wild-type (Homo sapiens, UniProt Q9Y3Z3 1-626); assay: fluorescence anisotropy
[2] = biological target: SAMHD1 T592E (Homo sapiens, UniProt Q9Y3Z3 1-626, T592E); assay: fluorescence anisotropy
Sequence of SAMHD1 T592E (Q9Y3Z3 whole entry T592E): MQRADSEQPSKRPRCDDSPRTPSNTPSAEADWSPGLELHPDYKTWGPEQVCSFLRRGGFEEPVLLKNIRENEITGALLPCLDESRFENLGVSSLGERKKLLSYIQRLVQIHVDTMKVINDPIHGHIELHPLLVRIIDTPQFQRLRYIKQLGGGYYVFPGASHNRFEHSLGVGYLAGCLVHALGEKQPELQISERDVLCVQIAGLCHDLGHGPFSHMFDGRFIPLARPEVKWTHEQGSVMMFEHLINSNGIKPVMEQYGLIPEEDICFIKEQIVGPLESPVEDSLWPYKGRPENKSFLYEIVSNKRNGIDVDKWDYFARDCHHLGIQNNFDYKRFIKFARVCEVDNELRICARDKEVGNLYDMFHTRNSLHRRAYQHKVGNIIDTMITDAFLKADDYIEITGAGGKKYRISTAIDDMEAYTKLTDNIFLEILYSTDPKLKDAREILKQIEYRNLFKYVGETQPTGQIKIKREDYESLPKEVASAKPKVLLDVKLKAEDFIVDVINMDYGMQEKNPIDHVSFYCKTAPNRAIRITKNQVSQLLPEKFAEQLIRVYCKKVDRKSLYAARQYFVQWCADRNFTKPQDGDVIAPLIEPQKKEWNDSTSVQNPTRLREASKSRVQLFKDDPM

Sequence of SAMHD1 wild-type (Q9Y3Z3 whole entry): as the sequence (Q9Y3Z3 whole entry T592E) above, with E592T counted along it

B1: 5'FAM-PsDNA5 (XNA)
DNA: CGCCT
modifications: phosphorothioate at every internucleotide linkage, mixed Rp/Sp
Kd [1]: 0.119 ± 0.007 µM | Kd [2]: 0.283 ± 0.008 µM

B2: 5'FAM-ssDNA57 (ssDNA)
DNA: TGGAGAATCCCGGTGCCGAGGCCGCTCAATTGGTCGTAGACAGCTCTAGCACCGCTT
Kd [2]: 0.431 ± 0.025 µM
